Results on 2 molecules are retold here after PMC8371321, “A Novel Z-Ring Associated Protein ZapA-Like Protein (PA5407) From Pseudomonas aeruginosa Promotes FtsZ to Form Double Filaments” (Frontiers in Microbiology, 2021).

The target in experiment [1] is T1, FtsZ from Pseudomonas aeruginosa (P. aeruginosa, UniProt P47204 1-394).
T1 construct: FtsZ, Pseudomonas aeruginosa; pET15b containing the entire ftsZ gene (NdeI/BamHI); His6 tag removed with thrombin; The construct is from Chen et al., 2012; Residues of the vector may be left after the thrombin cut; Forms protofilaments with GTP; also called PaFtsZ; source: E. coli BL21(DE3), purified (Talon column, thrombin, source Q column)
T1 sequence (looked up): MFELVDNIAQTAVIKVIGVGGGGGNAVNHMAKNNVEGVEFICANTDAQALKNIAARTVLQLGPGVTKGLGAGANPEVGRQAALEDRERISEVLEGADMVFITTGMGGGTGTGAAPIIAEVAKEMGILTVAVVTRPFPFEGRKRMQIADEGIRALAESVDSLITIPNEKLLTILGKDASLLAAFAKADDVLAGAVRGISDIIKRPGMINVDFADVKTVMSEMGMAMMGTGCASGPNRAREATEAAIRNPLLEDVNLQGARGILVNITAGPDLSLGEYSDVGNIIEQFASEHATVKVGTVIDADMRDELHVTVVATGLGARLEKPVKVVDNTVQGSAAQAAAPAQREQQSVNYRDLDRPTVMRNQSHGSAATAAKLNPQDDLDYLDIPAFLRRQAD
Kind of experiment: co-sedimentation; 15 uM FtsZ with 15 or 30 uM ZapAL, 1 mM GTP, 10 min at room temperature, 80,000 rpm for 30 min at 25 C (Beckman TLA100); pellet and supernatant by SDS-PAGE and ImageJ. Particulars: both partners purified.

The target of experiment [2] is T1, FtsZ from Pseudomonas aeruginosa. Kind of experiment: light scattering; FtsZ with ZapAL, ZapA or a 1:1 mixture of both, mixed with 1 mM or 0.1 mM GTP, HMK buffer (50 mM HEPES pH 7.5, 5 mM MgAc, 100 mM KAc), room temperature, 340 nm. Particulars: both partners purified.

B1: ZapA-Like protein (ZapAL; PA5407) from Pseudomonas aeruginosa (natural protein, P. aeruginosa, UniProt Q9HTF7 1-96, looked up)
chain: MSRDGVQVLSILGRDYSIRVPAGEERALADAAALLQAEVDANKRKFPYVTSNELVVLSALNLCARQLGANDGESPRLRAVEQRLEALVERIAGASG
notes: ZapA-Like protein ZapAL (PA5407), Pseudomonas aeruginosa, 96 amino acids; pET15b containing the entire zapAL gene (NdeI/BamHI); Stored and used with the His6 tag; also called ZapL; source: E. coli BL21(DE3), purified (Talon column)
Take B1: the “stoichiometry N” value in experiment [1] is ~1 FtsZ:ZapAL (molar ratio).

B2: ZapA (PA5227) from Pseudomonas aeruginosa (natural protein, P. aeruginosa, UniProt Q9HTW3 1-104, looked up)
chain: MSQSNTLTVQILDKEYCINCPDDERANLESAARYLDGKMREIRSSGKVIGADRVAVMAALNITHDLLHRKERLDQESSSTRERVRELLDRVDRALANPADAGEA
notes: pET15b containing the entire zapA gene (NdeI/BamHI); The construct is from Rahman et al., 2020; Stored and used with the His6 tag; also called PA5207; source: E. coli BL21(DE3), purified (Talon column)
Regarding B2, the binding result in experiment [2] is listed as “binds”.
